In patent US20230348603A1:

target: Mouse VSIG4-His (mouse); assay: ELISA, Fab P.E. 1:5 on coated antigen
Sequence (chain, as listed by the source limits assumed): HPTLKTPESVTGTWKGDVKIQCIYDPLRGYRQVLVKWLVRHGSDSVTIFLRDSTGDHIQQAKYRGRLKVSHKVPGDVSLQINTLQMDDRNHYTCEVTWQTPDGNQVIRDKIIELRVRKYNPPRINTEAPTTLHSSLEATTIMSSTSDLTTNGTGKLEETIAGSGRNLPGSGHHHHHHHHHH

Binder | ELISA OD450 [OD450]
16E10 mouse Fab (periplasmic extract) (Fab, V domains shown) VH: QVQLQQSGAELVRPGTSVKISCKASGYTFTNYWLGWVKQRPGHGLEWIGDIYPGGGYTNYNEKFKGKATLTADTSSSTAYMQLSSLTSEDSAVYFCAKFYYYGSSYYFDSWGQGTTLTVSS VL: DIVLTQSPSSLSVSAGEKVTLSCKSSQSLLNSGNQENYLAWYQQKPGQPPKLLIYGASTRESGVPDRFTGSGSGTDFTLTISSVQAEDLAVYYCQNDHSYPLTFGAGTKLELK | 0.058
12A12 mouse Fab (periplasmic extract) (Fab, V domains shown) VH: QVQMKQSGAELAKPGASVKMSCKASGYTFTNYWMHWVKQRPGQGLEWIGYINPSTGYTDYNQNFKDRATLTADKSSSTAYMQLSSLTSEDSAVYYCIRGSDYYGRDYWGQGTTLTVSS VL: DIQMTQTTSSLSASLGDRVTISCRASQDISNYLNWYQQKPDGTLKLLIYYTSRLHSGVPSRFSGSGSGTDYSLTISNLEQEDIATYFCRQGNTLPWTFGGGTKLEIK | 0.063
12A08 mouse Fab (periplasmic extract) (Fab, V domains shown) VH: EVMLVESGGGLVKPGGSLKLSCAASGFTFDDFYMYWVRQTPEKRLEWVASISDGGTYTYYPDSVKGRFTISRDNAKNTLYLQLSSLKSEDTAMYYCARGVDKYYYAMDYWGQGTSVTVSS VL: QILLTQSPAIMSASPGEKVTITCSASSSVSYMHWFQQKPGTSPKLWIYSTSNLASGVPARFSGSGSGTSYSLTISRMEAEDAATYYCQQRSSYPLTFGAGTKLELK | 0.057
16E03 mouse Fab (periplasmic extract) (Fab, V domains shown) VH: QVQLQQSGAELARPGASVKMSCKASGYTFTSYTMHWIKQRPGQGLEWIGYINPSSGHTYYNQKFKDKATLTPDKSSSTAYMQLTSLTSEDSAVYYCARRIPTAYAMDYWGQGTSVTVSS VL: EIQMTQSHKFMSTSVGDRVSITCKASQDVGTAVAWYQQKPGQSPKLLIYWASTRHTGVPDRFTGSGSGTDFTLTISNVQSEDLADYFCQQYSSYPLTFGAGTKLELK | 0.057

Next, values leading:

ELISA OD450 [OD450] | Binder
0.059 | 14C05 mouse Fab (periplasmic extract) (Fab, V domains shown) VH: EVMLVESGPELKKPGETVKISCKASGYTFTNYGMNWVKQAPGKGLKWMGSINTYTGEATYADDFKGRFAFSLETSANTAYLQIDNLKNEDTATYFCARGDYYGRGTWFAYWGQGTLVTVSA VL: ETTVTQSHKFMSTSVGDRVSITCKASQDVSTAVAWYQQKPGQSPKLLIYSASYRYPGVPDRFTGSGSGTDFTFTISSVQAEDLAVYYCQQDYSSPWTFGGGTKLEIK
0.065 | 15C03 mouse Fab (periplasmic extract) (Fab, V domains shown) VH: EVKLLESGPGLVKPSQSLSLTCTVTGYSITSDYAWNWIRQFPGNKLEWMGYISYSGSTRYNPSLKSRISITRDTSNNQFFLQLNSVTTEDTATYYCARSGYAAMDYWGQGTSVTVSS VL: ENVLTQSPAIMSASPGEKVTMTCRASSSVSSSYLHWYQQKSGASPKLWIYSTSNLASGVPARFSGSGSGTSYSLTISSVEAEDAATYYCQQYSGYPLTFGSGTKLEIK
0.054 | 14D12 mouse Fab (periplasmic extract) (Fab, V domains shown) VH: QIQLVQSGPELKKPGETVKISCKASGYTFTNYGMNWVKQTPGKGLKWMGLINTYTGEPTYADDFKGRFAFSLETSASTAYLQINNLKNEDMATYFCARERIYGYLHYFDYWGQGTTLTVSS VL: DVVMTQTPASLAVSLGQRATISCKASQSVDYDGDSYMNWYQQKPGQPPKLLIYAASNLESGIPARFSGSGSGTDFTLNIHPVEEEDAATYYCQQSNEDPRTFGGGTKLEIK
0.057 | 13H11 mouse Fab (periplasmic extract) (Fab, V domains shown) VH: QIQLVQSGPELKKPGETVKISCKASGYTFENFGMNWVKQAPGKGLKWMGWINTYTGEATYADDFKGRFAFSLETSASTAYLQINNLKNEDTATYFCARDGGFRHFDVWGAGTTVTVSS VL: ETTVTQSPASLSVATGEKVTIRCITSTDIDDDMNWYQQKPGEPPKLLISEGNTLRPGVPSRFSSSGYGTDFVFTIENMLSEDVADYYCLQSDNLPLTFGAGTKLELK
